Tests used:
Test in all cases: SPR
[1] = molecular target: VRC01 expressed in the ΔXT/FT N. benthamiana plant line (VRC01ΔXF) (human)
[2] = molecular target: plant‐produced VRC01 variant lacking Fc N‐glycans, N297S (VRC01aglyco) (human)
[3] = molecular target: VRC01 co‐expressed with human β1,4‐galactosyltransferase in the ΔXT/FT plant line (VRC01Gal) (human)
[4] = molecular target: VRC01 expressed transiently in WT N. benthamiana (VRC01WT) (human)
[5] = molecular target: VRC01 antibody derived from HEK cells (VRC01HEK) (human)
VRC01 antibody derived from HEK cells (VRC01HEK) (human), sequence (light, as listed by the source, chain 2 of 2, other chains not shown): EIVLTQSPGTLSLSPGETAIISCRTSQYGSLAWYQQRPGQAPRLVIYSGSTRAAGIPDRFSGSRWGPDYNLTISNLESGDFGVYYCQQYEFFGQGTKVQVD

recombinant human FcγRI ectodomain, sequence (P12314 16-292): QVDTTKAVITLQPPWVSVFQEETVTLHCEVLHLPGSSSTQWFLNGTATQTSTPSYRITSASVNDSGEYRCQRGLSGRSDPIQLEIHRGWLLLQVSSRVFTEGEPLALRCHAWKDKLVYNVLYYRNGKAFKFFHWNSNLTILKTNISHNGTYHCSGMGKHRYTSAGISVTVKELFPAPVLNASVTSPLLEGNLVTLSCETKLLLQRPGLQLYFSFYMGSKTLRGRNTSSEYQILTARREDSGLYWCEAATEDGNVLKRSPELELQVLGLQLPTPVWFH
VRC01 expressed transiently in WT N. benthamiana (VRC01WT) (human), sequence (light, as listed by the source, chain 2 of 2, other chains not shown): as the sequence (light, as listed by the source, chain 2 of 2, other chains not shown) above
VRC01 co‐expressed with human β1,4‐galactosyltransferase in the ΔXT/FT plant line (VRC01Gal) (human), sequence (light, as listed by the source, chain 2 of 2, other chains not shown): as above
VRC01 expressed in the ΔXT/FT N. benthamiana plant line (VRC01ΔXF) (human), sequence (light, as listed by the source, chain 2 of 2, other chains not shown): as above
plant‐produced VRC01 variant lacking Fc N‐glycans, N297S (VRC01aglyco) (human), sequence (light, as listed by the source, chain 2 of 2, other chains not shown): as above

Kd [1] [nM]	Kd [2] [nM]	Kd [3] [nM]	Kd [4] [nM]	half‐life of the antibody–FcγRI complex [4] [min]	Kd [5] [nM]	Substance
0.247	71	0.558	3	5	0.098	recombinant human FcγRI ectodomain (from UniProt P12314 16-292) (receptor)
2500	–	3700	> 7000	–	3400	recombinant human FcγRIIb ectodomain (from UniProt P31994 43-217) (receptor)

From PMC6953194
